T1: QCP (bacteriophage Qβ coat protein) (bacteriophage Qβ, UniProt P03615 2-133)
T1 sequence: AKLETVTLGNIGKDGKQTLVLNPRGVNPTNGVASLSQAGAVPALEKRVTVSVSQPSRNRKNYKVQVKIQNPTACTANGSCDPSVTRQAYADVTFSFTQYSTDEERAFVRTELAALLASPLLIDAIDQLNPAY


Each binder was assayed against T1, QCP (bacteriophage Qβ coat protein) (assay: SPR).
Binder CCAUUAGCUAAGCUAAUGGAAAAAAAAAAAAAAAAAAAAAAAA (structured_RNA) [A14] has a Kd of 17.8 nM.
CCCUUAGCUAAGCUAAGGUAAAAAAAAAAAAAAAAAAAAAAAA (structured_RNA) [A19] was tested, and the Kd was 80.4 nM.
CCUCUAGCUAAGCUAUAGGAAAAAAAAAAAAAAAAAAAAAAAA (structured_RNA) [A17] was tested, and the Kd was 90.8 nM.
With CCUUUAGCUAAGCUAAUGGAAAAAAAAAAAAAAAAAAAAAAAA (structured_RNA) [A16] the Kd was 28.9 nM.
For CCCUUAGCUAAGCUAAGUGAAAAAAAAAAAAAAAAAAAAAAAA (structured_RNA) [A18], the Kd was 16 nM.
CCGUUAGCUAAGCUAAUGGAAAAAAAAAAAAAAAAAAAAAAAA (structured_RNA) [A15] gave a Kd of 86.2 nM.
